In IntAct's records for PubMed 16367866:

B1: Translocated intimin receptor Tir (Escherichia coli O127:H6 (strain E2348/69 / EPEC)), B7UM99 (parent)
chain: MPIGNLGNNVNGNHLIPPAPPLPSQTDGAARGGTGHLISSTGALGSRSLFSPLRNSMADSVDSRDIPGLPTNPSRLAAATSETCLLGGFEVLHDKGPLDILNTQIGPSAFRVEVQADGTHAAIGEKNGLEVSVTLSPQEWSSLQSIDTEGKNRFVFTGGRGGSGHPMVTVASDIAEARTKILAKLDPDNHGGRQPKDVDTRSVGVGSASGIDDGVVSETHTSTTNSSVRSDPKFWVSVGAIAAGLAGLAATGIAQALALTPEPDDPTTTDPDQAANAAESATKDQLTQEAFKNPENQKVNIDANGNAIPSGELKDDIVEQIAQQAKEAGEVARQQAVESNAQAQQRYEDQHARRQEELQLSSGIGYGLSSALIVAGGIGAGVTTALHRRNQPAEQTTTTTTHTVVQQQTGGNTPAQGGTDATRAEDASLNRRDSQGSVASTHWSDSSSEVVNPYAEVGGARNSLSAHQPEEHIYDEVAADPGYSVIQNFSGSGPVTGRLIGTPGQGIQSTYALLANSGGLRLGMGGLTSGGESAVSSVNAAPTPGPVRFV
partner: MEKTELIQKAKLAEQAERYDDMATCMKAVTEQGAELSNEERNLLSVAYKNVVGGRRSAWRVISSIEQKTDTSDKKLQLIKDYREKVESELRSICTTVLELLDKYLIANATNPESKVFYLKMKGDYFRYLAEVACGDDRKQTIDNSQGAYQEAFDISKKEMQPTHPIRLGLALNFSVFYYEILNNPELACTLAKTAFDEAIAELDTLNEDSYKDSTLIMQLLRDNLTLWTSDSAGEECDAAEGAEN

Variants of: B1
Details: with 1433t_human YWHAQ

Question: S465A was tested. Which “effect of a mutation on the interaction” value did it give?
Answer: with no effect

Question: How did the “effect of a mutation on the interaction” value turn out when S434A was run?
Answer: with no effect

Question: S51A was tested. Which “effect of a mutation on the interaction” value did it give?
Answer: with no effect
